Results as given in publication PMC9899272, “An engineered variant of MECR reductase reveals indispensability of long-chain acyl-ACPs for mitochondrial respiration” (Nature Communications, 2023).
Changes are numbered by the printed parent chain. Names may count otherwise.

B1: wild-type human MECR (2E-enoyl-ACP reductase) with C-terminal His-tag (enzyme, UniProt Q9BV79 31-373, looked up)
chain: ASSYSASAEPARVRALVYGHHGDPAKVVELKNLELAAVRGSDVRVKMLAAPINPSDINMIQGNYGFLPELPAVGGNEGVAQVVAVGSNVTGLKPGDWVIPANAGLGTWRTEAVFSEEALIQVPSDIPLQSAATLGVNPCTAYRMLMDFEQLQPGDSVIQNASNSGVGQAVIQIAAALGLRTINVVRDRPDIQKLSDRLKSLGAEHVITEEELRRPEMKNFFKDMPQPRLALNCVGGKSSTELLRQLARGGTMVTYGGMAKQPVVASVSLLIFKDLKLRGFWLSQWKKDHSPDQFKELILTLCDLIRRGQLTAPACSQVPLQDYQSALEASMKPFISSKQILTM
notes: the first N-terminal residues of the crystallised protein are A31-A41 (not defined in the maps); the C-terminus is seen till L374, followed by the six-residue His-tag; L374 lies beyond M373, the last visible residue of the earlier structures, and is probably a vector residue before the His-tag; also called wild-type MECR; MECR WT; source: E. coli BL 21 Star (DE3) pLysS, purified (Ni-NTA, …)
B2: MECR G165Q variant with C-terminal His-tag (enzyme, human, UniProt Q9BV79 31-373, looked up)
chain: B1 chain with G135Q
notes: the first N-terminal residues of the crystallised protein are A31-A41 (not defined in the maps); the C-terminus is seen till L374, followed by the six-residue His-tag; L374 is probably a vector residue before the His-tag; also called G165Q MECR; G165Q mutant; source: E. coli BL 21 Star (DE3) pLysS, purified (Ni-NTA, size-exclusion chromatography); not shown: His6, C-terminal, kept

Tests used:
[1] = target: the molecule itself; test: crystal structure; sitting drop vapor diffusion at +4 °C, 16.82% PEG 6000, 1 M NaCl, 100 mM acetic acid, pH 4.5; trigonal space group P3(1)21; one chain in the asymmetric unit, dimer via a crystallographic 2-fold axis
[2] = substrate: CCC/C=C/C(=O)SCCNC(=O)CCNC(=O)[C@H](O)C(C)(C)COP(=O)(O)OP(=O)(O)OC[C@H]1O[C@@H](n2cnc3c(N)ncnc32)[C@H](O)[C@@H]1OP(=O)(O)O; test: spectrophotometric 2E-enoyl-CoA reductase assay, Michaelis-Menten fit; format: biochemical, Homo sapiens; conditions: 125 µM NADPH, 100 µg bovine serum albumin, 50 mM potassium phosphate pH 7.5, 25 °C
Description: (§1) spectrophotometric 2E-enoyl-CoA reductase assay, Michaelis-Menten fit on MECR

[3] = substrate: CCCCC/C=C/C(=O)SCCNC(=O)CCNC(=O)[C@H](O)C(C)(C)COP(=O)(O)OP(=O)(O)OC[C@H]1O[C@@H](n2cnc3c(N)ncnc32)[C@H](O)[C@@H]1OP(=O)(O)O; test: as above; format: biochemical, Homo sapiens; conditions: 125 µM NADPH, 100 µg bovine serum albumin, 50 mM potassium phosphate pH 7.5, 25 °C
Description: as §1

[4] = substrate: CCCCCCC/C=C/C(=O)SCCNC(=O)CCNC(=O)[C@H](O)C(C)(C)COP(=O)(O)OP(=O)(O)OC[C@H]1O[C@@H](n2cnc3c(N)ncnc32)[C@H](O)[C@@H]1OP(=O)(O)O; test: as above; format: biochemical, Homo sapiens; conditions: 125 µM NADPH, 100 µg bovine serum albumin, 50 mM potassium phosphate pH 7.5, 25 °C
Description: as §1

Protein | stoichiometry N [1] | Km [2] | kcat [2] | kcat/Km [2] | Km [3] | kcat [3] | kcat/Km [3] | Km [4] | kcat [4] | kcat/Km [4]
B1 | 2 | 90.6 ± 26.5 µM | 0.99 ± 0.22 s⁻¹ | 10000 M⁻¹ s⁻¹ | 23.2 ± 5.4 µM | 1.8 ± 0.13 s⁻¹ | 80000 M⁻¹ s⁻¹ | 15.9 ± 2.2 µM | 0.62 ± 0.02 s⁻¹ | 40000 M⁻¹ s⁻¹
B2 | 2 | 111.2 ± 17.3 µM | 3.49 ± 0.33 s⁻¹ | 30000 M⁻¹ s⁻¹ | 114.1 ± 16.2 µM | 12.4 ± 1.9 s⁻¹ | 110000 M⁻¹ s⁻¹ | 8.15 ± 1.54 µM | 0.3 ± 0.02 s⁻¹ | 40000 M⁻¹ s⁻¹
